According to publication PMC9380774, “Mpe1 senses the binding of pre-mRNA and controls 3′ end processing by CPF” (Molecular Cell, 2022):

How the values were obtained:
[1] = biological target: T1, polymerase module (Cft1-Pap1-Pfs2-Fip1-Yth1);Mpe1 (Saccharomyces cerevisiae;Saccharomyces …, UniProt Q06632;P29468;P42841;P45976;Q06102;P35728 1-1357;1-568;1-465;1-327;1-208;1-441, |); assay: size exclusion chromatography; 5 uM polymerase module, 15 uM Mpe1, 10 uM RNA; comigration, later elution; EMSA: SEC 50 buffer (composition not given in material), 50 nM FAM-RNA, 10% native PAGE 1X TBE, room temperature; SEC: Superose 6 Increase 3.2/300 in SEC 50; settings: protein: recombinant;recombinant; tags: untagged (from polymerase module-Mpe1 purification); Pfs2-SII in some preparations;C-terminal SII; copies: 1;1;1;1;1;1; label: 5' 6-FAM; single strand
[2] = biological target: polymerase module (Cft1-Pap1-Pfs2-Fip1-Yth1);Mpe1;yPIM peptide of Cft2 (Saccharomyces cerevisiae;Saccharomyces …, UniProt Q06632;P29468;P42841;P45976;Q06102;P35728;Q12102 …, ||); assay: cryo-EM; Zn2+; 2.61 A; Cft2 yPIM peptide; EMSA: SEC 50 buffer (composition not given in material), 50 nM FAM-RNA, 10% native PAGE 1X TBE, room temperature; SEC: Superose 6 Increase 3.2/300 in SEC 50; settings: tags: untagged (from polymerase module-Mpe1 purification); Pfs2-SII in some preparations;C-terminal SII;; copies: 1;1;2;1;1;1;1; single strand; 4 nt modelled
[3] = biological target: T1, polymerase module …; assay: cryo-EM; Zn2+; 2.66 A; EMSA: SEC 50 buffer (composition not given in material), 50 nM FAM-RNA, 10% native PAGE 1X TBE, room temperature; SEC: Superose 6 Increase 3.2/300 in SEC 50; settings: protein: recombinant;recombinant; tags: untagged (from polymerase module-Mpe1 purification); Pfs2-SII in some preparations;C-terminal SII; copies: 1;1;1;1;1;1; single strand; 4 nt modelled

B1: precleaved CYC1 (pcCYC1), 42 nt (ssRNA)
RNA: UUUAUAGUUAUGUUAGUAUUAAGAACGUUAUUUAUAUUUCAA
- binding result [1]: binds

B2: precleaved CYC1 used for cryo-EM (IDT FAM or T7 version not stated) (ssRNA)
RNA: UUUAUAGUUAUGUUAGUAUUAAGAACGUUAUUUAUAUUUCAA
- binding result [2]: binds
- binding result [3]: binds
